Reference: publication PMC7089075

How the values were obtained:
[1] = target: N (two-hybrid positive control, pAS2 N and pGADT7 N); assay: two-hybrid
[2] = target: Salmo salar Mov10 (SsMov10) (Salmo salar); assay: two-hybrid

Substance: N (two-hybrid positive control, pAS2 N and pGADT7 N) (natural protein)
- liquid beta gal assay value [1]: 1.28

Substance: infectious salmon anaemia virus (ISAV) segment 8 open reading frame 2 protein (s8ORF2) (natural protein)
- fold β-galactosidase activity against the controls [2]: 5 fold
